# Target: DDX3wt (Homo sapiens, UniProt O00571 1-662)
# Assay: EMSA; no ATP; EMSA: on ice, protein buffer 25 mM Tris-HCl pH 7.5, 0.5 mM DTT, 20% glycerol, 100 mM NaCl plus 5x binding buffer (10% glycerol, 5 mM MgCl2, 2.5 mM EDTA pH 8, 50 mM NaCl, 50 mM Tris-HCl pH 7.5, 10 mM DTT), 0.05 pmol oligo. Filter binding: 10 mM Hepes pH 7.2, 100 mM KCl, 3 mM MgCl2, 5% glycerol, 1 mM DTT, 50 µg/ml salmon sperm DNA, 50 nM dsDNA, 24°C
# Details: protein: recombinant; tags: N-terminal ~3 kDa peptide with 6xHis; C-terminal KQGCFGG; label: 5' 6-FAM
# DDX3wt, sequence (O00571 whole entry): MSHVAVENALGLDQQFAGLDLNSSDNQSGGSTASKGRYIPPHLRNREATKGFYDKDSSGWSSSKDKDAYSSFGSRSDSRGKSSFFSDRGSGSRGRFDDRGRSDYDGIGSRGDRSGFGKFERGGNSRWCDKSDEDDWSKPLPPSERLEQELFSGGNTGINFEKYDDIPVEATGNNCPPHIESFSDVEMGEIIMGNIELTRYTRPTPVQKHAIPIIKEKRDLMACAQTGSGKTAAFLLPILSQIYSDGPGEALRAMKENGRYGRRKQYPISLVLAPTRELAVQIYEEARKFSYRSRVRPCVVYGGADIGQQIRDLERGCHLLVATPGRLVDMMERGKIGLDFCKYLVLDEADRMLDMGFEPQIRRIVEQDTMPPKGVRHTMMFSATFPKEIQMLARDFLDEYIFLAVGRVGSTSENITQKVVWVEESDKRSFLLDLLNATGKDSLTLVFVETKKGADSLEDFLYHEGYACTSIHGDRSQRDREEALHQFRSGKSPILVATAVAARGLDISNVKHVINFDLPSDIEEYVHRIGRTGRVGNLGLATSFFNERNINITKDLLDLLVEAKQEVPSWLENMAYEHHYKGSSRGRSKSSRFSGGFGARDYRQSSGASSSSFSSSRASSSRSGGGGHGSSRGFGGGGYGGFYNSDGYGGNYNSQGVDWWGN
row,Binder,binding result
1,CCCAAGAACCCAAGGAAC (ssRNA) [ssRNA (6-FAM r18mer)],binds
2,CTCAACTCAACCCTTCAT (ssDNA) [ssDNA (6-FAM d18mer)],binds

# — paper PMC3093405, “A Motif Unique to the Human Dead-Box Protein DDX3 Is Important for Nucleic Acid Binding, ATP Hydrolysis, RNA/DNA Unwinding and HIV-1 Replication”
